Source: patent publication US20200407445A1 (ITEOS THERAPEUTICS, published 2020)

How the values were obtained:
[1] = molecular target: T1, human TIGIT expressed on cells (human, UniProt Q495A1 22-244); experiment: cell-based or functional assay
T1 sequence (looked up): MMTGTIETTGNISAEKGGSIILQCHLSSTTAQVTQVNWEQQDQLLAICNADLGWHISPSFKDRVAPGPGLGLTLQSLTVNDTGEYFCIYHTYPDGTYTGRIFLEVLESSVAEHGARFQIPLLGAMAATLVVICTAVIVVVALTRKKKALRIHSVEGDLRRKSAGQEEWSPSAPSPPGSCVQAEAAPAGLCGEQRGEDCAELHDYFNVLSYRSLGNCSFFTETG

[2] = molecular target: T1, human TIGIT expressed on cells; experiment: cell-based or functional assay; remark: listed apart in the source
[3] = molecular target: T1, human TIGIT expressed on cells; experiment: flow cytometry on Jurkat-hTIGIT
Protocol: (§1) Antibodies were incubated with the cells for 20 min at 4° C. in FACS buffer. […] Fluorescence intensity was analysed using LSR BD Fortessa and cell binding was recorded as the median fluorescence intensity of PE in cells expressing TIGIT at their surface.
(§2) The half-maximal concentration of binding (EC50) to Jurkat-hTIGIT was calculated using a four-variable curve-fit equation in Prism.

[4] = molecular target: T1, human TIGIT expressed on cells; experiment: flow cytometry on Jurkat-hTIGIT; remark: listed apart in the source
Protocol: as §1, §2

[5] = molecular target: T1, human TIGIT expressed on cells; experiment: flow cytometry, primary CD8+ T cells of healthy human PBMC, MFI
Protocol: Isolated human PBMCs from healthy volunteers were analysed for binding by antagonist anti-TIGIT antibodies. Cells were distributed at 1×10⁵ cells per well. Cells were incubated with anti-CD16 (Clone 3G8, BioLegend 302002), CD32 (Clone FLI8.26, BD Bioscience 557333) and CD64 (BD Bioscience 555525) at room temperature for 10 min, and the indicated anti-human TIGIT antibody clones were directly added at a final concentration of 8; 4; 2; 1; 0.5; 0.25; 0.125; 0.062; 0.031; 0.016; 8×10⁻³ and 4×10⁻³ nM in FACS buffer and incubated for 20 min at 4° C. […] Then, cells were washed and incubated with the following antibodies and LVD mix: anti-CD4-PercP-Cy5.5 (clone A161A1, BioLegend 357414); anti-CD8-BV510 (clone SK1, BD Bioscience 563919) and LVD efluor 660 (eBioscience 65-0864-18).
The EC50 values for binding to CD8+ human primary T cells were calculated using the MFI signal on living TIGIT+CD8+ T cells.

[6] = molecular target: T1, human TIGIT expressed on cells; experiment: flow cytometry, primary CD8+ T cells of cancer patients' PBMC, MFI
Protocol: Cells were distributed at 1×10^5 cells per well. […] Then, cells were washed and incubated with the following antibodies and life viability dye (LVD) mix: anti-CD4-PercP-Cy5.5 (clone A161A1, BioLegend 357414); anti-CD8-BV510 (clone SK1, BD Bioscience 563919) and LVD efluor 520 (eBioscience 65-0867-14). Cells were washed and fixed and surface staining was quantified using BD LSR Fortessa. Flow cytometry data was analysed using FlowJo V10.1. TIGIT MFI on gated LVD-TIGIT+CD8+ cells was used to calculate EC50 values.

[7] = molecular target: T1, human TIGIT expressed on cells; experiment: flow cytometry, competition with CD155-His (15 ug/ml) on Jurkat-hTIGIT
[8] = molecular target: T2, recombinant human TIGIT protein (construct not stated) (human, UniProt Q495A1 22-141, limits assumed); experiment: Biacore T200, IgG captured by anti-human Fc, antigen in solution, 1:1 kinetic model
T2 construct: also called hTIGIT (Creative Biomart); recombinant TIGIT protein
T2 sequence (looked up): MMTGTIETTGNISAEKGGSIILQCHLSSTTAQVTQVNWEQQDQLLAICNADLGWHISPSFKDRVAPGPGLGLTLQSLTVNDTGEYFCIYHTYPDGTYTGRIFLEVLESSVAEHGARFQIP
Protocol: (§3) Biosensor analysis was conducted at 25° C. in a HBS-EP buffer system (10 mM HEPES pH 7.3, 150 mM NaCl, 3 mM EDTA, 0.05% Tween20) using Biacore T200 technology, CMS sensor chip (run at Novalix, France). The sample hotel was maintained at 8° C. Goat anti-human IgG capture antibody (Fcγ fragment specific, Jackson ImmunoResearch Laboratories) was immobilized (10000 RU) to both flow cells of the sensor chip using standard amine coupling chemistry. This surface type provided a format for reproducibly capturing fresh analysis antibody after each regeneration step. Flow cell 2 was used to analyse captured antibody while flow cell 1 was used as a reference flow cell. […] Two blank (buffer) injections also were run and used to assess and subtract system artefacts. The association (300 s) and dissociation (600 s) phases for all antigen concentrations were performed at a flow rate of 30 uL/min. The surface was regenerated with three sequential injections (15 s, 15 s and 60 s) of 10 mM glycine-HCl, pH 1.5. The obtained sensorgrams were fitted globally to a 1:1 model (assuming the same kinetic values for all applied concentrations).

[9] = molecular target: T1, human TIGIT expressed on cells; experiment: flow cytometry, cell binding Jurkat human TIGIT
[10] = molecular target: T1, human TIGIT expressed on cells; experiment: flow cytometry, AF647-32959 on Jurkat-hTIGIT; competitor 31282 at 0 nM
Protocol: (§4) Geometric mean fluorescence intensity was analysed using LSR BD Fortessa. Cell binding was recorded as the median florescence intensity of AF647.

[11] = molecular target: T1, human TIGIT expressed on cells; experiment: flow cytometry, AF647-32959 on Jurkat-hTIGIT; competitor 31282 at 8 nM
Protocol: as §4

[12] = molecular target: T1, human TIGIT expressed on cells; experiment: flow cytometry, AF647-32959 on Jurkat-hTIGIT; competitor 31282 at 0.8 nM
Protocol: as §4

[13] = molecular target: T1, human TIGIT expressed on cells; experiment: flow cytometry, AF647-32959 on Jurkat-hTIGIT; competitor 31282 at 0.08 nM
Protocol: as §4

[14] = molecular target: T1, human TIGIT expressed on cells; experiment: flow cytometry, AF647-32959 on Jurkat-hTIGIT; competitor 31282 at 0.16 nM
Protocol: as §4

[15] = molecular target: T3, mouse TIGIT expressed on cells (mouse, UniProt P86176 29-249); experiment: cell-based or functional assay
T3 sequence (looked up): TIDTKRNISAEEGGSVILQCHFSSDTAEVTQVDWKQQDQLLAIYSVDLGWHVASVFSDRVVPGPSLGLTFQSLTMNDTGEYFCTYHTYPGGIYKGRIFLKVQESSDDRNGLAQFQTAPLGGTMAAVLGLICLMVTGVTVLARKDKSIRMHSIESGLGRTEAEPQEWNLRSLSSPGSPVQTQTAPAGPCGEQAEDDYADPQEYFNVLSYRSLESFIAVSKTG

[16] = molecular target: T1, human TIGIT expressed on cells; experiment: cell-based or functional assay; remark: listed apart in the source
Human TIGIT-Fc = molecular target: T4, Human TIGIT-Fc (human, UniProt Q495A1 22-141); experiment: ForteBio BLI, IgG KD, avid
T4 construct: bought (Creative Biomart); also called TIGIT-Fc antigen; TIGIT-Fc fusion antigen; not shown: Fc part
T4 sequence (looked up): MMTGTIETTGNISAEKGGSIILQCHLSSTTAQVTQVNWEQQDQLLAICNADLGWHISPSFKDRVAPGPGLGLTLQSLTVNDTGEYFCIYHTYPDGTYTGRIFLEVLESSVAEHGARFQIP

[17] = molecular target: T1, human TIGIT expressed on cells; experiment: flow cytometry, 100 nM Ab, Jurkat-hTIGIT vs untransfected
Protocol: (§5) Antibodies were incubated with the cells for 20 min at 4° C. in FACS buffer. […] Geometric mean fluorecence intensity was analysed using LSR BD Fortessa. Cell binding was recorded as the median florescence intensity of PE on the transfected line compared to the un-transfected line for each antibody (Table 3).

[18] = molecular target: T3, mouse TIGIT expressed on cells; experiment: flow cytometry, 100 nM Ab, Jurkat-mTIGIT vs untransfected
Protocol: as §5

[19] = molecular target: T3, mouse TIGIT expressed on cells; experiment: flow cytometry, competition with mouse CD155-His-Fc (4 ug/ml) on Jurkat-mTIGIT, FIG. 15A
Protocol: Cells were washed once, and stained with PE-anti-His antibody (Biolegend, 362603) during 30 min at 4° C.

[20] = molecular target: T2, recombinant human TIGIT protein …; experiment: Biacore T200, IgG captured by anti-human Fc, antigen in solution, steady state model
Protocol: as §3, with “The obtained sensorgrams were fitted globally to a 1:1 model (assuming the same kinetic values for all applied concentrations).” left out

B1: 4.1D3.Q1E (comparative anti-TIGIT antibody, human IgG1) (antibody, V domains shown)
VH: EVQLQQSGPGLVKPSQTLSLTCAISGDSVSSNSAAWNWIRQSPSRGLEWLGKTYYRFKWYSDYAVSVKGRITINPDTSKNQFSLQLNSVTPEDTAVFYCTRESTTYDLLAGPFDYWGQGTLVTVSS
VL: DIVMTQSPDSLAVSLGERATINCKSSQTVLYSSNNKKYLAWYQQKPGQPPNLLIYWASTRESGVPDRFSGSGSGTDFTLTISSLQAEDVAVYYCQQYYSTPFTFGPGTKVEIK
notes: from WO2017/053748; made in HEK cells as human IgG1
EC50 (nM), luciferase, Jurkat-hTIGIT [1]: 10.3 nM
Fold change of EC50 over EC50 of best clone (31282_up) [1]: 3.1 fold
Induction over Isotype control (fold change), luciferase, Jurkat-hTIGIT + CD155 aAPC/CHO-K1 [1]: 5.8 fold
EC50 (nM), IFNg, human primary CD8+ T cells [2]: 1.43 nM
Fold change of EC50 over EC50 of best clone (31282_wu) [2]: 10.8 fold
Induction over isotype control (fold change), IFNg, human primary CD8+ T cells + CD155 aAPC/CHO-K1 [2]: 2.9 fold
EC50 [3]: 0.267 nM
EC50 [4]: 0.27 nM
Fold change of EC50 over EC50 of best clone (31282_wu) [4]: 2.5 fold
EC50 [5]: 1.88 nM
Fold change of EC50 over EC50 of best clone (31282_wu) [5]: 9.7 fold
EC50 [6]: 1.15 nM
Fold change of EC50 over EC50 of best clone (31282) [6]: 9.5 fold
Fold change of IC50 over IC50 of best clone (31282_up) [7]: 1.9 fold
IC50 [7]: 0.07 nM
Kd [8]: 0.044 nM
koff [8]: 4.72e-05 s⁻¹

B2: anti-TIGIT antibody clone 32959 (human IgG1) (antibody, V domains shown)
VH: QVQLVQSGAEVKKPGSSVKVSCKASGGTFSSYLISWVRQAPGQGLEWMGGIYPIFATANYAQKFQGRVTITADESTSTAYMELSSLRSEDTAVYYCAREAQSYRVPFDIWGQGTMVTVSS
VL: EIVMTQSPATLSVSPGERATLSCRASQSVSSNLAWYQQKPGQAPRLLIYGASTRATGIPARFSGSGSGTEFTLTISSLQSEDFAVYYCQQYAIWPPFTFGGGTKVEIK
modifications: The antibody was directly coupled to the dye AF647 in Example 24; the attachment sites are not stated.
notes: human IgG1 made in HEK cells
FON (Fold Over Negative) [9]: 588 fold
EC50 [10]: 0.22 nM
EC50 [11]: 0.39 nM
EC50 [12]: 0.49 nM
EC50 [13]: 0.33 nM
EC50 [14]: 0.37 nM

B3: anti-TIGIT antibody clone 26493 (IgG) (antibody, V domains shown)
VH: EVQLVESGGGLVQPGRSLRLSCAASGFTFGDYAMHWVRQAPGKGLEWVSGITWNSGSIGYADSVKGRFTISRDNAKNSLYLQMNSLRAEDTALYYCAKPVPKSRGLDVWGQGTMVTVSS
VL: DIQLTQSPSSVSASVGDRVTITCRASQGISSWLAWYQQKPGKAPKLLIYGASSLQSGVPSRFSGSGSGTDFTLTISSLQPEDFATYYCQQAFYLPWTFGGGTKVEIK
notes: parent clone; also called surrogate anti-TIGIT antagonistic antibody
IFNg production by mouse OT-I CD8+ T cells co-cultured with OVA-pulsed PanO2 cells (express CD155), 133 nM [15]: ~2 fold
Induction over Isotype control (fold change), luciferase, Jurkat-hTIGIT + CHO-TCR-CD155, 133 nM [16]: 0.96 fold
Kd (Human TIGIT-Fc): 1.49 nM
FON (Fold Over Negative) [17]: 80 fold
FON (Fold Over Negative) [18]: 463 fold
IC50 [19]: 2.3 nM

B4: 313M32 (comparative anti-TIGIT antibody, human IgG1) (antibody, V domains shown)
VH: QVQLQESGPGLVKPSETLSLTCAVSGYSITSDYAWNWIRQPPGKGLEWIGYISYSGSTSYNPSLRSRVTISRDTSKNQFFLKLSSVTAADTAVYYCARRQVGLGFAYWGQGTLVTVSS
VL: DIQMTQSPSSLSASVGDRVTITCKASQDVSTAVAWYQQKPGKAPKLLIYSASYRYTGVPSRFSGSGSGTDFTFTISSLQPEDIATYYCQQHYSTPWTFG
notes: from WO2016/191643; made in HEK cells as human IgG1; the VL as printed ends at ...TFG (FR4 not complete); also called 313M2
EC50 [3]: 0.445 nM
EC50 [4]: 0.44 nM
Fold change of EC50 over EC50 of best clone (31282_wu) [4]: 4.2 fold
EC50 [5]: 1.45 nM
Fold change of EC50 over EC50 of best clone (31282_wu) [5]: 7.5 fold
EC50 [6]: 1 nM
Fold change of EC50 over EC50 of best clone (31282) [6]: 8.3 fold
Fold change of IC50 over IC50 of best clone (31282_up) [7]: 16.7 fold
IC50 [7]: 0.65 nM
Kd [20]: 10.1 nM
